Here are results for 2 substances from patent publication US20230331860A1.

pKd: −log10 of the molar value.

Some targets named below: hCD16a-F158 (human) (UniProt P08637); hCD16a-V158 (human) (UniProt P08637); hCD32a-H131 (human) (UniProt P12318); hCD32a-R131 (human) (UniProt P12318); hCD32b (human) (UniProt P31994); hCD64 (human) (UniProt P12314).
Common to all, as to assay: FcγR binding, SPR (method per paragraph 74)
Test [1] addresses cyCD64 (cynomolgus monkey).
Test [2] deals with cyCD16 (cynomolgus monkey) (UniProt Q8SPW2).
Test [3] has as its target cyCD32a (cynomolgus monkey).
The target in test [4] is cyCD32b (cynomolgus monkey).

Sequence of BMS-986325 (antibody) (heavy): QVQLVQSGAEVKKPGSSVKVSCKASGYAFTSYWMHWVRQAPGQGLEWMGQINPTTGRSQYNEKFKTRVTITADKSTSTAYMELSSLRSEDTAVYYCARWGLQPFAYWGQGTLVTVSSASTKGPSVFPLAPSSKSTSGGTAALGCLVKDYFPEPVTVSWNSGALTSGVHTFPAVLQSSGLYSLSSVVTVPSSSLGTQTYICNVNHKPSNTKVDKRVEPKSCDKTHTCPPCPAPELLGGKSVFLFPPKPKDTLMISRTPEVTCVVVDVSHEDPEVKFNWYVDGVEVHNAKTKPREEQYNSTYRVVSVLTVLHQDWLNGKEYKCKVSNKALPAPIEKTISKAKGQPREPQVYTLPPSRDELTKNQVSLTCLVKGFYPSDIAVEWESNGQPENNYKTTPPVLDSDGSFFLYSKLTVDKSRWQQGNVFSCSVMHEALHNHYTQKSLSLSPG
Sequence of BMS-986325 (antibody) (light): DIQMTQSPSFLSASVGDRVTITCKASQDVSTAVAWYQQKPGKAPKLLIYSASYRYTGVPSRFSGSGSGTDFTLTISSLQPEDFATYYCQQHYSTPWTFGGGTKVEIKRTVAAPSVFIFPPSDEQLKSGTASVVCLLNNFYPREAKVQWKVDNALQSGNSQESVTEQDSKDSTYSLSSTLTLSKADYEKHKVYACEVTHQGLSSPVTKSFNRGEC
Sequence of hCD16a-V158 (human) (P08637 17-208 F176V limits assumed): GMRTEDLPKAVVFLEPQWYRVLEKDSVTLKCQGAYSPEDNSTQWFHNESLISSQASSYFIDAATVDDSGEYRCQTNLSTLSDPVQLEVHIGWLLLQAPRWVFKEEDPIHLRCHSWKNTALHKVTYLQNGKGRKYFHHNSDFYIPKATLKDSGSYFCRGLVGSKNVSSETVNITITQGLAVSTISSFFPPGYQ
Sequence of hCD16a-F158 (human) (P08637 17-208 limits assumed): as the sequence (P08637 17-208 F176V limits assumed) above, with V160F counted along it
Sequence of cyCD16 (cynomolgus monkey) (Q8SPW2 17-208 limits assumed): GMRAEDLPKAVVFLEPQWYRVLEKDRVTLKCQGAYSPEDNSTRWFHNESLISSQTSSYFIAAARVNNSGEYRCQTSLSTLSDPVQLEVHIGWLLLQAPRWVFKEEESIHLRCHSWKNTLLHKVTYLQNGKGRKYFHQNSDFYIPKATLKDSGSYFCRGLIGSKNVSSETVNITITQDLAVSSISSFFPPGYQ
Sequence of hCD32a-R131 (human) (P12318 36-218 H167R limits assumed): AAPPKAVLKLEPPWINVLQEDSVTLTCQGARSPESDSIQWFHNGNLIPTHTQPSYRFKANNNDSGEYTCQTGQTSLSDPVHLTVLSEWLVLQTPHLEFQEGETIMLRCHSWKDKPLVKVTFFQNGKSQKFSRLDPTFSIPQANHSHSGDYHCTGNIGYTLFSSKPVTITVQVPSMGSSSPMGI
Sequence of hCD64 (human) (P12314 16-288 limits assumed): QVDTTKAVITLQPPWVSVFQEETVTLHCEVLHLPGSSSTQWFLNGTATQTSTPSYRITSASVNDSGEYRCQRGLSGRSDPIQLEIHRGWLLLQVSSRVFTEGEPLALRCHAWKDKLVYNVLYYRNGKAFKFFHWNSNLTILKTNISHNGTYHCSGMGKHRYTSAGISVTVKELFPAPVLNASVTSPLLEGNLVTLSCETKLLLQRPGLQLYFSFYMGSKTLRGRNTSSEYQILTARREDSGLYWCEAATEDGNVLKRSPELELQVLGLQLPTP
Sequence of hCD32b (human) (P31994 43-217 limits assumed): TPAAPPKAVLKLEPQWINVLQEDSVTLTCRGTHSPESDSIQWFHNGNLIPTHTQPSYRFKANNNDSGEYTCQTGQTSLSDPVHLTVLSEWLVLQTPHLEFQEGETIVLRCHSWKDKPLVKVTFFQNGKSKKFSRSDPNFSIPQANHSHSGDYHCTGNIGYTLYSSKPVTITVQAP
Sequence of hCD32a-H131 (human) (P12318 36-218 limits assumed): as the sequence (P12318 36-218 H167R limits assumed) above, with R132H counted along it

On to BMS-986325 (antibody), for which, in [1], the negative logarithm of the Kd (pKd) was 7.89 and the fold weaker binding than wild-type human IgG1 control worked out at 100 fold.

For wild-type human IgG1 control (antibody), the pKd was 6.79 in test [2]; 5.82 in test [3]; 6.06 in test [4]; more than 10.00 in test [1]; 5.35 in the test with hCD16a-F158 (human); 6.92 with hCD16a-V158 (human). Besides, the pKd with hCD32a-H131 (human) was 6.35; in the test with hCD32a-R131 (human), 6.18; with hCD32b (human), 5.51; with hCD64 (human), more than 10.00.
